Reference: patent publication US20160068844A1 (Sanofi, published 2016)

How the values were obtained:
human IL17A = molecular target: T1, human IL17A (human, UniProt Q16552 24-155); assay: ELISA, plates coated with IL17A, serial dilutions of sIL17R, detection with biotinylated anti-IL17RA and streptavidin-HRP
T1 construct: also called interleukin-17A
T1 sequence (looked up): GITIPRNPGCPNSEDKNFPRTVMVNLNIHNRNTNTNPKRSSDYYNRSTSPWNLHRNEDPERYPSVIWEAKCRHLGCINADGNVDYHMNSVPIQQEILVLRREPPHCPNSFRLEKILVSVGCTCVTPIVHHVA
Protocol: (§1) For sIL17R binding to IL17A, ELISA plates were coated with 100 μg/ml human IL17A or mouse IL17A overnight, then blocked with 1% BSA. Serial two-fold dilutions of sIL17R were added in triplicate to the plate and incubated for 1 h at 37° C. Unbound receptor was washed from the plate in an ELISA plate washer. 100 μl biotinylated anti-IL17RA (1 μg/ml) was added to each well and incubated 1 h at room temperature and excess antibody was washed away. Each well was incubated with streptavidin-HRP conjugate and washed. Bound HRP was measured by incubation with TMBD substrate for 20 minutes followed by addition of acid stop solution. OD was measured at 450 nm.

mouse IL17A = molecular target: T2, mouse IL17A (mouse, UniProt Q62386 26-158); assay: as above
T2 construct: also called recombinant mouse Il17a
T2 sequence (looked up): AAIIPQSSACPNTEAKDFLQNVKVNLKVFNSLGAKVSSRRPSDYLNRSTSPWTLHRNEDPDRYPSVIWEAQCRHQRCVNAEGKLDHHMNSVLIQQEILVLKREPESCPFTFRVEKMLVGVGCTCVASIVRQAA
Protocol: as §1

B1: sIL17R-9gly-CH3 (soluble human IL-17 receptor A linked by nine glycines to the CH3 domain of human IgG1) (Fc fusion)
chain: SLRLLDHRALVCSQPGLNCTVKNSTCLDDSWIHPRNLTPSSPKDLQIQLHFAHTQQGDLFPVAHIEWTLQTDASILYLEGAELSVLQLNTNERLCVRFEFLSKLRHHHRRWRFTFSHFVVDPDQEYEVTVHHLPKPIPDGDPNHQSKNFLVPDCEHARMKVTTPCMSSGSLWDPNITVETLEAHQLRVSFTLWNESTHYQILLTSFPHMENHSCFEHMHHIPAPRPEEFHQRSNVTLTLRNLKGCCRHQVQIQPFFSSCLNDCLRHSATVSCPEMPDTPEPIPDYMTGGGGGGGGGQPREPQVYTLPPSRDELTKNQVSLTCLVKGFYPSDIAVEWESNGQPENNYKTTPPVLDSDGSFFLYSKLTVDKSRWQQGNVFSCSVMHEALHNHYTQKSLSLSPG
notes: also called sIL17RA-9gly-CH3; sIL17R-9G-CH3
Question: Does B1 bind (human IL17A)?
Answer: Result: binds

Question: Does B1 bind (mouse IL17A)?
Answer: Result: binds
